T1: wild-type IL-17RC (wtIL-17RC) (human, UniProt Q8NAC3 21-538, limits assumed)
T1 construct: also called IL-17RC wild type
T1 sequence (looked up): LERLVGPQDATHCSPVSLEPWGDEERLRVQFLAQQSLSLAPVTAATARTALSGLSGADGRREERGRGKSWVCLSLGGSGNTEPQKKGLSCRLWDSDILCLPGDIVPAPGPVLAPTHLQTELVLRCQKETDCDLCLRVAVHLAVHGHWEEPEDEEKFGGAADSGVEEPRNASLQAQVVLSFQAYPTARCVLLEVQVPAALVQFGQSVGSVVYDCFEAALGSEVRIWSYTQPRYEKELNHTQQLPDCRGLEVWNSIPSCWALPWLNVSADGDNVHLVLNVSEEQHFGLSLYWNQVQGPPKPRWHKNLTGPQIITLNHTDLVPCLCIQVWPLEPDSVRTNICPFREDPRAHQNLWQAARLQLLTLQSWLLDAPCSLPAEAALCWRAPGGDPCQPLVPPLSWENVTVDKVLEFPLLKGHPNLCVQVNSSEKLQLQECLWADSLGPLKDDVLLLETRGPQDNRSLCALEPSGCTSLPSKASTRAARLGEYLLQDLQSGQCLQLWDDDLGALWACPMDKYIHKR

T2: murine TNFα (mouse, UniProt P06804 80-235)
T2 construct: also called mTNFα; mouse TNFα
T2 sequence (looked up): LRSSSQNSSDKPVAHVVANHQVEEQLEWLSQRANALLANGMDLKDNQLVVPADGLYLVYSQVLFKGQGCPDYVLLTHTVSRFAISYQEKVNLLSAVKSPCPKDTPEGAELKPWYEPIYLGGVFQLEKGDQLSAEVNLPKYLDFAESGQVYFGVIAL

B1: human IL-17F (IL-17FF homodimer) (ligand, UniProt Q96PD4 31-163, looked up)
chain: RKIPKVGHTFFQKPESCPPVPGGSMKLDIGIINENQRVSMSRNIESRSTSPWNYTVTWDPNRYPSEVVQAQCRNLGCINAQGKEDISMNSVPIQQETLVVRRKHQGCSVSFQLEKVLVTVGCTCVTPVIHHVQ
notes: also called hIL-17F; hIL-17FF
B2: T1-T4-14 (Fc fusion)
chain: LRLLDHRAPVCSQPGLNCTVKNSDCLDDSWIHPRNLTPSSPKDLQIQLHFAHTQQGDLVPVAHIEWTLQTDASILYLEGAELSVLQLDTNERLCVRFEFLSKLRHHHRRWRFTFSHFVVDPGQEYEVTVHHLPKPIPDGDPNHQSKNFLVPDCEHPRMKVTTPCMSSALPWLNVSADGDNVHLVLNVSEEQHFGLSLYWNQVQGPPKPRWHKNLTGPQIITLNHTDLVPCLCIQVWPLEPDSVRTNICPFREDPRAHQNLWQAARLRLLTLQSWLLDAPCSLPAEAALCWRAPGGDPCQPLVPPLSWENVTVDKVLEFPLLKGHPNLCVQVNSSEKLQLQECLWADSLGPLKDDVLLLETRGPQDNRSLCALEPSGCTSLPSKASTRAARLGEYLLQDLQSGQCLQLWDDDLGALWACPMDKYIHKTGIEGRMDRNTGRGGEEKKKEKEKEEQEERETKTPECPSHTQPLGVFLFPPKPKDTLMISRTPEVTCVVVDVSQEDPEVQFNWYVDGVEVHNAKTKPREEQFNSTYRVVSVLTVLHQDWLNGKEYKCKVSNKGLPSSIEKTISKAKGQPREPQVYTLPPSQEEMTKNQVSLTCLVKGFYPSDIAVEWESNGQPENNYKTTPPVLDSDGSFFLYSRLTVDKSRWQEGNVFSCSVMHEALHNHYTQKSLSLSLGKGGGGSGGGGSGGGGSLELPAQVAFTPYAPEPGSTCRLREYYDQTAQMCCAKCPPGQHAKVFCTKTSDTVCDSCEDSTYTQLWNWVPECLSCSSRCSSDQVETQACTREQNRICTCRPGWYCALSKQEGCRLCAPLSKCRPGFGVARPGTETSDVVCKPCAPGTFSNTTSSTDICRPHQICSVVAIPGNASMDAVCTSTSPTRSMAPGAVHLPQPVSTRSQHTQPTPGPSTAPSTSILLPMGPSPPAEGSTGD
notes: also called T1c-Fc-T4g; IL-17RA/RC-Fc-TNFR2 (T1-T4-14)
B3: T1-T4-14 produced in pcDNA3.4 (Fc fusion)
chain: B2 chain
notes: Same named protein as T1-T4-14 but expressed from the pcDNA3.4 vector; also called IL-17RA/RC-Fc-TNFR2
B4: T1-T4-07 (Fc fusion)
chain: B2 chain with A729S, P732S, S771G, S815R, S860N, G906E, I915F
notes: also called T1c-Fc-T4wt; IL-17RA/RC-Fc-TNFR2
B5: T1-T4-14+GT6 (glycan sialylated T1-T4-14) (Fc fusion)
chain: B2 chain
modifications: glycan sialylation (co-expressed with B4GALT6, fed with UMnG and ManNAc)
notes: Same polypeptide as T1-T4-14, with increased sialylation; also called T1-T4-14 produced in pcDNA3.4+GT6; glycan sialylated IL-17RA/RC-Fc-TNFR2
B6: T1-T4-31 (Fc fusion)
chain: B2 chain with M484Y, S486T, T488E
notes: also called T1c-Fca-T4g; IL-17RA/RC-Fc-TNFR2
B7: IL-17RA/RC-Fc-mTNFR2 (T1-mT4-35) (Fc fusion)
chain: LRLLDHRAPVCSQPGLNCTVKNSDCLDDSWIHPRNLTPSSPKDLQIQLHFAHTQQGDLVPVAHIEWTLQTDASILYLEGAELSVLQLDTNERLCVRFEFLSKLRHHHRRWRFTFSHFVVDPGQEYEVTVHHLPKPIPDGDPNHQSKNFLVPDCEHPRMKVTTPCMSSALPWLNVSADGDNVHLVLNVSEEQHFGLSLYWNQVQGPPKPRWHKNLTGPQIITLNHTDLVPCLCIQVWPLEPDSVRTNICPFREDPRAHQNLWQAARLRLLTLQSWLLDAPCSLPAEAALCWRAPGGDPCQPLVPPLSWENVTVDKVLEFPLLKGHPNLCVQVNSSEKLQLQECLWADSLGPLKDDVLLLETRGPQDNRSLCALEPSGCTSLPSKASTRAARLGEYLLQDLQSGQCLQLWDDDLGALWACPMDKYIHKTGIEGRMDRNTGRGGEEKKKEKEKEEQEERETKTPECPSHTQPLGVFLFPPKPKDTLMISRTPEVTCVVVDVSQEDPEVQFNWYVDGVEVHNAKTKPREEQFNSTYRVVSVLTVLHQDWLNGKEYKCKVSNKGLPSSIEKTISKAKGQPREPQVYTLPPSQEEMTKNQVSLTCLVKGFYPSDIAVEWESNGQPENNYKTTPPVLDSDGSFFLYSRLTVDKSRWQEGNVFSCSVMHEALHNHYTQKSLSLSLGKGGGGSGGGGSGGGGSLEVPAQVVLTPYKPEPGYECQISQEYYDRKAQMCCAKCPPGQYVKHFCNKTSDTVCADCEASMYTQVWNQFRTCLSCSSSCTTDQVEIRACTKQQNRVCACEAGRYCALKTHSGSCRQCMRLSKCGPGFGVASSRAPNGNVLCKACAPGTFSDTTSSTDVCRPHRICSILAIPGNASTDAVCAPESPTLSAIPRTLYVSQPEPTRSQPLDQEPGPSQTPSILTSLGSTPIIEQSTKGG
notes: The hTNFR2 ECD is replaced by the mouse TNFR2 ECD; also called hT1-mT4-35; T1-T4-35

In assay [1] the target is T1, wild-type IL-17RC (wtIL-17RC). Kind of assay: binding affinity analysis of Table 12 (Octet BLI as described in Example 5). Background: Biolayer interferometry detects binding as a change in optical thickness at a sensor tip.
Assay [2] deals with T3, human TNFα (human, UniProt P01375 77-233). Briefly: cell-based or functional assay.
Assay [3] concerns the target B1. Briefly: cell-based or functional assay.
Assay [4] concerns the target T4, human IL-17A (IL-17AA homodimer) (human, UniProt Q16552 20-155, limits assumed). Kind of assay: cell-based or functional assay.
Assay [5] deals with T3, human TNFα. Briefly: ELISA, cytokine coated on plate, binder titrated, HRP secondary antibody. In general terms: An ELISA detects its analyte on a solid surface through an enzyme-linked reagent.
Assay [6] addresses B1. Described as above.
Assay [7] has as its target T4, human IL-17A (IL-17AA homodimer). The description is as above.
Assay [8] concerns the target T3, human TNFα. Kind of assay: ELISA.
The target in assay [9] is B1. Kind of assay: ELISA.
Assay [10] concerns the target T4, human IL-17A (IL-17AA homodimer). Kind of assay: ELISA.
Assay [11] has as its target B1. Kind of assay: ELISA as in Example 8, cytokine coated on plate.
The target in assay [12] is T2, murine TNFα. Kind of assay: ELISA as in Example 8, cytokine coated on plate.
Assay [13] has as its target T4, human IL-17A (IL-17AA homodimer). Briefly: ELISA as in Example 8, cytokine coated on plate.

Numbering of substitutions follows the chain as printed.

These results are taken from EP4682164A1 (Curogen Technology Co., Ltd., dated 2026).

T4 sequence (Q16552 20-155 limits assumed): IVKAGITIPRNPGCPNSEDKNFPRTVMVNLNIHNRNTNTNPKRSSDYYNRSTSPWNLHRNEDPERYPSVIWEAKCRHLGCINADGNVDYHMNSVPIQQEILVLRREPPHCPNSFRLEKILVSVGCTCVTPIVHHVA
T3 sequence (P01375 77-233 limits assumed): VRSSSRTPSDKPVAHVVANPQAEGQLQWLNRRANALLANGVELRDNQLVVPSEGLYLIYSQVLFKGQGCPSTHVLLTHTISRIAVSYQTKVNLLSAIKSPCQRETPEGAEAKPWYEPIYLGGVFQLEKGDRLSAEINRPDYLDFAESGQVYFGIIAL

In the case of B1, in assay [1], the affinity, expressed as Kd, was 4 nM.
Turning to B2, in assay [2], the “IC50 (ng/mL) of hTNFα, SEAP reporter assay in HEK-Blue TNFα cells” value was found to be 14.9 ng/mL. Besides, in assay [3], the “IC50 (ng/mL) of hIL-17F, SEAP reporter assay in HEK-Blue IL-17 cells” value (“IC50 (ng/mL) of hIL-17F” below) is 1150 ng/mL. For the same molecule, the “IC50 (ng/mL) of hIL-17A, SEAP reporter assay in HEK-Blue IL-17 cells” value (“IC50 (ng/mL) of hIL-17A” for short) in assay [4] amounted to 20.9 ng/mL. Further, the EC50 (commonly the midpoint of the concentration-response curve) in assay [5] amounted to 0.0438 µg/mL; in [6] it was 0.13 µg/mL; in assay [7], 0.00924 µg/mL; in [8], 0.068 µg/mL; in [9], 0.0702 µg/mL; in assay [10], 0.0752 µg/mL.
In the case of B3, the results for the EC50 in [8], in assay [9] and in assay [10] were 0.0873 µg/mL, 0.0455 µg/mL and 0.0607 µg/mL, respectively.
For the molecule B4, in assay [2], the “IC50 (ng/mL) of hTNFα, SEAP reporter assay in HEK-Blue TNFα cells” value is 354 ng/mL. The “IC50 (ng/mL) of hIL-17F” value in [3] was found to be 2740 ng/mL. In [4], the “IC50 (ng/mL) of hIL-17A” value turned out to be 24.4 ng/mL. In addition, the EC50 in assay [5] turned out to be 2.04 µg/mL; in [6], 0.183 µg/mL; in assay [7] it was 0.00706 µg/mL.
Regarding B5, the EC50 in [8] is 0.0443 µg/mL; in assay [9], 0.0621 µg/mL; in [10], 0.0543 µg/mL.
In the case of B6, in [3], the “IC50 (ng/mL) of hIL-17F” value stood at 1240 ng/mL. In addition, the “IC50 (ng/mL) of hIL-17A” value in [4] was 15.3 ng/mL. Moreover, the EC50 in assay [5] is 0.0627 µg/mL; in assay [6] it was 0.0853 µg/mL.
Regarding B7, the EC50 in [11] was determined as 0.0907 µg/mL; in assay [12], 0.071 µg/mL; in assay [13], 0.0803 µg/mL.
